Data: patent publication US20070117770, “Human ribosomal DNA (rDNA) and ribosomal RNA (rRNA) nucleic acids and uses thereof” (Cylene Pharmaceuticals, Inc., published 2007)

Tests used:
[1] = target: T1, Nucleolin (MBP fusion, lacking N-terminal acidic stretches domain) (Homo sapiens, UniProt P19338 P19338:284-710); assay: EMSA; random single-stranded control; details: label: 32P, no quadruplex
Method: In the assays, recombinant nucleolin (˜250 nM), which was fused to maltose binding protein and had the sequence under accession number NM_{—}005381 without the N-terminal acidic stretches domain, was incubated with each of the two ³²P-labeled nucleic acid ligands (10 or 250 nM). Nucleolin and the nucleic acid ligand were incubated in the presence or absence of a test compound of Formula A-1, B-1, C-6 or C-7 in an incubation buffer (12.5 mM Tris, pH 7.6, 60 mM KCl, 1 mM MgCl₂, 0.1 mM EDTA, 1 mM DTT, 5% glycerol, 0.1 mg/ml BSA) for 30 minutes at room temperature. Structures for A-1 and B-1 are shown above and structures for C-6 and C-7 are shown hereafter: The resulting complexes were separated on a 6% DNA retardation gel using 0.5× TBE with 20 mM KCl as a running buffer (i.e., electrophoresis mobility shift assay (EMSA)).
The assay also was conducted using nucleic acid ligands derived from human ribosomal DNA. Sequences of these nucleic acids are shown in the preceding example. It was determined from these assays that compound A-1, but not Actinomycin D, interfered with nucleolin/nucleic acid ligand interactions. […] A “+” represents the weakest nucleolin affinity and least interference by compound A-1 and a “++++” represents the strongest nucleolin affinity and greatest interference by compound A-1.

[2] = target: T1, Nucleolin (MBP fusion, lacking …); assay: filter; Bmax 60%; 60 mM KCl, 1 mM MgCl2; details: label: 32P; G4 mixed
Method: (§1) The assay also was conducted in a filter-binding format. In such forms of the assay, 0.2 nM of ³²P-labeled quadruplexes were incubated in 50 uL of the binding buffer (12.5 mM Tris-HCl, pH 7.6, 60 mM KCl, 1 mM MgCl2, 0.1 mM EDTA, 5% glycerol, 0.1 mg/mL BSA) for 10 min at 85 C and then for 10 min on ice and mixed with another 50 uL of binding buffer containing increasing amounts of recombinant protein Nucleolin. The protein-quadruplex mixtures were incubated for 30 min at ambient temperature and filtered through mixed cellulose ester membrane filters (Millipore) with gentle suction. The filters were washed twice with […] of binding buffer, dried and OptiPhase ‘SuperMix’ scintillation cocktail (Perkin Elmer) was added to the wells. Radioactivity was assayed with MicroBeta scintillation counter (Perkin Elmer). Binding curves were constructed and apparent Kd's and Bmax's for the complexes were calculated using the GraphPad Prizm software program (GraphPad Software). […]

[3] = target: T1, Nucleolin (MBP fusion, lacking …); assay: filter; Bmax 68%; 60 mM KCl, 1 mM MgCl2; details: label: 32P; G4 parallel
Method: as §1

[4] = target: T1, Nucleolin (MBP fusion, lacking …); assay: EMSA; details: label: 32P; G4 antiparallel
Method: The following assays assessed effects of compounds on interactions between nucleolin and nucleic acid ligands capable of forming quadruplex (QP) and hairpin (HP) secondary structures. Nucleic acid ligands tested were a cMyc QP DNA having nucleotide sequence 5′-[…]-3′ (SEQ ID NO: 176) and a HP pre-rRNA region to which nucleolin binds, having the sequence 5′-[…]-3′ (SEQ ID NO: 177). In the assays, recombinant nucleolin (˜250 nM), which was fused to maltose binding protein and had the sequence under accession number NM_{—}005381 without the N-terminal acidic stretches domain, was incubated with each of the two ³²P-labeled nucleic acid ligands (10 or 250 nM). Nucleolin and the nucleic acid ligand were incubated in the presence or absence of a test compound of Formula A-1, B-1, C-6 or C-7 in an incubation buffer (12.5 mM Tris, pH 7.6, 60 mM KCl, 1 mM MgCl₂, 0.1 mM EDTA, 1 mM DTT, 5% glycerol, 0.1 mg/ml BSA) for 30 minutes at room temperature. […]
The assay also was conducted using nucleic acid ligands derived from human ribosomal DNA. […] It was determined from these assays that compound A-1, but not Actinomycin D, interfered with nucleolin/nucleic acid ligand interactions. […]

[5] = target: T1, Nucleolin (MBP fusion, lacking …); assay: EMSA; complex disrupted by compounds A-1, B-1, C-6, C-7; 60 mM KCl, 1 mM MgCl2, room temperature; details: label: 32P; G4
Method: The following assays assessed effects of compounds on interactions between nucleolin and nucleic acid ligands capable of forming quadruplex (QP) and hairpin (HP) secondary structures. Nucleic acid ligands tested were a cMyc QP DNA having nucleotide sequence 5′-[…]-3′ (SEQ ID NO: 176) and a HP pre-rRNA region to which nucleolin binds, having the sequence 5′-[…]-3′ (SEQ ID NO: 177). In the assays, recombinant nucleolin (˜250 nM), which was fused to maltose binding protein and had the sequence under accession number NM_{—}005381 without the N-terminal acidic stretches domain, was incubated with each of the two ³²P-labeled nucleic acid ligands (10 or 250 nM). Nucleolin and the nucleic acid ligand were incubated in the presence or absence of a test compound of Formula A-1, B-1, C-6 or C-7 in an incubation buffer (12.5 mM Tris, pH 7.6, 60 mM KCl, 1 mM MgCl₂, 0.1 mM EDTA, 1 mM DTT, 5% glycerol, 0.1 mg/ml BSA) for 30 minutes at room temperature. Structures for A-1 and B-1 are shown above and structures for C-6 and C-7 are shown hereafter: The resulting complexes were separated on a 6% DNA retardation gel using 0.5× TBE with 20 mM KCl as a running buffer (i.e., electrophoresis mobility shift assay (EMSA)).

[6] = target: T1, Nucleolin (MBP fusion, lacking …); assay: filter; Bmax 13%; 60 mM KCl, 1 mM MgCl2; details: label: 32P; G4 antiparallel
Method: as §1

[7] = target: T1, Nucleolin (MBP fusion, lacking …); assay: filter; Bmax 100%; 62-mer printed here, Example 6 table prints a shorter sequence under the same name; details: label: 32P; G4 mixed
Method: as §1

[8] = target: T1, Nucleolin (MBP fusion, lacking …); assay: filter; Bmax 51%; 60 mM KCl, 1 mM MgCl2; details: label: 32P; G4 parallel
Method: as §1

T1 sequence (P19338 284-710, one chain of several): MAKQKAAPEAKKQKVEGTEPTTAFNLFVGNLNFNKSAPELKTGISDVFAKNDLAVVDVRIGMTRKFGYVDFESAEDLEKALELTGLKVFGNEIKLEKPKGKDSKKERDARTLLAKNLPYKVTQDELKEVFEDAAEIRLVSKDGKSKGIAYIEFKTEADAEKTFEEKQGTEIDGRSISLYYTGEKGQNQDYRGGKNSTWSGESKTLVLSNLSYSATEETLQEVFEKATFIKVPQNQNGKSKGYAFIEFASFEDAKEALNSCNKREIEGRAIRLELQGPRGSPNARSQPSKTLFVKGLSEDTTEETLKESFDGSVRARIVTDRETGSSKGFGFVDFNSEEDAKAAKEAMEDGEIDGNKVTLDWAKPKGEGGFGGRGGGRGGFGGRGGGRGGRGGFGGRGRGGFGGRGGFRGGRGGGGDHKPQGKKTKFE

B1: RND27 (ssDNA)
DNA: GTCGTAACGTCGATCAGTTTACGACAT
B1: no binding [1].

B2: 7253NT (structured_DNA)
DNA: GGGTCCGGAAGGGGAAGGGTGCCGGCGGGGAGAGAGGGTCGGGGG
Binder B2 has a Kd [2] of 0.4 nM.

B3: 6960NT (structured_DNA)
DNA: GGGTGGCGGGGGGGAGAGGGGGG
Binder B3 has a Kd [3] of 0.5 nM.

B4: 10816NT (structured_DNA)
DNA: GGGCTGGGTCGGTCGGGCTGGGG
B4: no binding [4].

B5: cMyc QP DNA (structured_DNA)
DNA: TGGGGAGGGTGGGGAGGGTGGGGAAGG
B5: binds [5].

B6: 8749NT (structured_DNA)
DNA: GGGAGGGCGCGCGGGTCGGGG
Work on B6 yielded a Kd [6] of 1.9 nM.

B7: 8511NT (structured_DNA)
DNA: GGGGGCGGGCTCCGGCGGGTGCGGGGGTGGGCGGGCGGGGCCGGGGGTGGGGTCGGCGGGGG
In the case of B7, the Kd [7] is reported as 0.6 nM.

B8: 6534NT (structured_DNA)
DNA: GGGCGGGGGGGGCGGGGGG
With B8 the Kd [8] was 1.1 nM.
